This passage reports Kd results from PMC5999314.

For the assay, the target named is dengue poly-immunoglobulin G scaffold (D-PIGS), unfractionated, from ∆XF N. benthamiana. Kind of assay: SPR; Biacore X100, affinity layout: 200 RU of D-PIGS (unfractionated) or hIgG1 captured on immobilised protein A (CM5 chip); CD16a or CD64 injected as analyte, 12.5 to 800 nM, contact 60 s, 50 uL/min, dissociation 200 s; two-state model for CD16a, 1:1 model for CD64. (In general: In SPR one partner is held on a chip, and binding of the other changes the refractive index at the surface.)

Consider “recombinant human CD16a (from UniProt P08637 17-208) (receptor)”, for which the Kd (as a rule, a measure of binding affinity in units of concentration) was found to be 24.8 nM.
